Reference: patent publication WO2018223004A1 (dated 2018)

Biological target: T1, human CD20 (B-lymphocyte antigen CD20) (human, UniProt P11836 1-297)
T1 sequence (looked up): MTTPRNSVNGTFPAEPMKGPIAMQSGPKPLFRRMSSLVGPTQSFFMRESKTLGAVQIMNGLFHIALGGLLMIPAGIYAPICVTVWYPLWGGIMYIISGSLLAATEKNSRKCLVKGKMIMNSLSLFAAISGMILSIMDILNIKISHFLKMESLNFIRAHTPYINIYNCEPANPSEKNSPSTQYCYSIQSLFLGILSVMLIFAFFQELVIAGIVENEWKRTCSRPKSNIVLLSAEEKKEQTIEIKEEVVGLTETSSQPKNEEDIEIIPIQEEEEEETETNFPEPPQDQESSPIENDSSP
Assay: cell-based or functional assay

B1: XmAb13676 Anti-CD20 x Anti-CD3 Fab-scFv-Fc bispecific antibody (bispecific antibody)
heavy: QVQLVQSGAEVKKPGASVKVSCKASGYTFTSYNMHWVRQAPGQGLEWMGAIYPGNGDTSYNQKFQGRVTITADKSISTAYMELSSLRSEDTAVYYCARSTYYGGDWYFNVWGAGTLVTVSSASTKGPSVFPLAPSSKSTSGGTAALGCLVKDYFPEPVTVSWNSGALTSGVHTFPAVLQSSGLYSLSSVVTVPSSSLGTQTYICNVNHKPSDTKVDKKVEPKSCDKTHTCPPCPAPPVAGPSVFLFPPKPKDTLMISRTPEVTCVVVDVKHEDPEVKFNWYVDGVEVHNAKTKPREEEYNSTYRVVSVLTVLHQDWLNGKEYKCKVSNKALPAPIEKTISKAKGQPREPQVYTLPPSREEMTKNQVSLTCDVSGFYPSDIAVEWESDGQPENNYKTTPPVLDSDGSFFLYSKLTVDKSRWEQGDVFSCSVMHEALHNHYTQKSLSLSPGK
scFv: not shown
light: QIVLTQSPSSLSASVGDRVTITCRASSSVSYIHWFQQKPGKSPKPLIYATSNLASGVPVRFSGSGSGTDYTLTISSLQPEDFATYYCQQWTSNPPTFGGGTKVEIKRTVAAPSVFIFPPSDEQLKSGTASVVCLLNNFYPREAKVQWKVDNALQSGNSQESVTEQDSKDSTYSLSSTLTLSKADYEKHKVYACEVTHQGLSSPVTKSFNRGEC
Question: For B1, which “EC50 of Jeko-1 target cell killing in the absence of rituximab” value is on record?
Answer: Its value is 0.024 µg/mL.

Question: What about the “EC50 of Jeko-1 target cell killing with 3 μg/ml rituximab” value of the same binder?
Answer: Its value is 0.051 µg/mL.

Question: What about the “EC50 of Jeko-1 target cell killing with 10 μg/ml rituximab” value of the same binder?
Answer: The value was 0.093 µg/mL.

Question: And the “EC50 of Jeko-1 target cell killing with 30 μg/ml rituximab” value?
Answer: Its value is 0.162 µg/mL.

Question: And the “EC50 of Jeko-1 target cell killing with 100 μg/ml rituximab” value?
Answer: The value was 0.387 µg/mL.

Question: What about the “EC50 of RTCC against Ramos cells with purified T cells from six healthy donors” value of the same binder?
Answer: The value was 0.0053 to 0.0143 µg/mL.

Question: And the “potency of killing of SC-1 against the cell lines with high or intermediate CD20 levels” value?
Answer: The value was ~10 fold.
